Test results as given in publication PMC4063770, “A Dimerized HMX1 Inhibits EPHA6/epha4b in Mouse and Zebrafish Retinas” (PLoS ONE, 2014).

Molecular target: the molecule itself
Assay: native gel or EMSA; lysate in non-denaturing lysis buffer (20 mM Tris-HCl, 137 mM NaCl, 10% glycerol, 1% Triton X-100, 2 mM EDTA, pH 8.0), 5 ug on a 4-15% gel run without SDS, compared with a denaturing gel; Western blot with anti-HA

B1: HA-tagged wild-type HMX1 (natural protein)
chain: not shown
notes: HMX1 (NKX5-3), wild type; also called HA-HMX1; source: HEK 293T, transfected, in lysate
stoichiometry N: 2
